We go through 167 variants from the Human Domainome abundance scans (Beltran et al. 2025).

B1: Formin-binding protein 4, residues 200 to 261; numbered along this chain, Q8N3X1 (parent)
chain: SGWQYDTQCSLAGVGIEMGDWQEVWDENTGCYYYWNTQTNEVTWELPQYLATQVQGLQHYQP
B2: SAM and SH3 domain-containing protein 1, residues 630 to 700; numbered along this chain, O94885 (parent)
chain: GRPPQPKSVEDLLDRINLKEHMPTFLFNGYEDLDTFKLLEEEDLDELNIRDPEHRAVLLTAVELLQEYDSN

± gives the uncertainty stated by the source.

In one data set the parent is B1. The data set is described as follows: abundance fitness (aPCA) (normalised: wild type 0, dead -1); higher = more abundant; growth selection in yeast, the domain comes from the species named. The note with it: Homo sapiens.
H59Y: the abundance fitness was -0.296 ± 0.08.
On the same count and under the same terms, the value for H59S was -0.029 ± 0.06; that for H59T was 0.147 ± 0.07; that for Y60H was 0.092 ± 0.099.
On to Y60N, for which the abundance fitness stood at 0.01 ± 0.13.
In the case of Y60D, the abundance fitness amounted to 0.19 ± 0.1.
Same read-out and setting: the value for Y60S was 0.066 ± 0.062; that for Y60F was 0.124 ± 0.087.
Still for that read-out and setting: the value for Y60P was 0.113 ± 0.09; that for Y60G was 0.103 ± 0.058.
The same measure, in the same setting: the value for Y60R was 0.112 ± 0.054; that for Y60A was 0.115 ± 0.068.
For the variant Y60Q, the abundance fitness stood at 0.123 ± 0.12.
Same read-out and setting: the result for Y60T reads 0.101 ± 0.081.
On to Y60E, for which the abundance fitness was 0.117 ± 0.085.
On the same count and under the same terms, the result for Y60V reads 0.099 ± 0.057; that for Y60I, 0.153 ± 0.092.
The same measure, in the same setting: the result for Y60M reads 0.177 ± 0.081.
Consider Y60K, for which the abundance fitness stood at 0.038 ± 0.099.
On the same count and under the same terms, the value for Y60W was -0.068 ± 0.081; that for Y60L was 0.086 ± 0.057; that for Y60C was 0.035 ± 0.077.
The same measure, in the same setting: the result for P62V reads -0.423 ± 0.16; that for P62I, -0.268 ± 0.21; that for P62L, -0.011 ± 0.14.
Same read-out and setting: the result for P62Q reads -0.237 ± 0.16; that for P62T, -0.009 ± 0.12.
Take P62M: the abundance fitness was determined as 0.218 ± 0.32.
Same read-out and setting: the value for P62C was -0.006 ± 0.2.
On the same count and under the same terms, the result for P62K reads 0.194 ± 0.17.
Same read-out and setting: the value for P62F was -0.103 ± 0.26; that for P62Y was -0.161 ± 0.23; that for P62R was -0.29 ± 0.093.
Regarding P62G, the abundance fitness was -0.028 ± 0.11.
The same measure, in the same setting: the value for P62E was -0.469 ± 0.42; that for P62S was 0.045 ± 0.11; that for P62H was 0.084 ± 0.32.
Still for that read-out and setting: the value for P62A was 0.124 ± 0.11; that for Q61W was -0.423 ± 0.1.
Still for that read-out and setting: the value for Q61C was -0.203 ± 0.1; that for Q61K was -0.046 ± 0.093.
In the case of Q61E, the abundance fitness worked out at 0.065 ± 0.08.
On the same count and under the same terms, the value for Q61S was -0.083 ± 0.069.
Same read-out and setting: the result for Q61I reads -0.299 ± 0.12; that for Q61L, -0.132 ± 0.054.
On to Q61P, for which the abundance fitness was -0.201 ± 0.1.
Same read-out and setting: the result for Q61D reads -0.034 ± 0.1.
Consider Q61A, for which the abundance fitness turned out to be 0.115 ± 0.064.
Regarding Q61M, the abundance fitness is -0.16 ± 0.093.
Consider Q61G, for which the abundance fitness is -0.018 ± 0.069.
As to Q61N, the abundance fitness was -0.108 ± 0.15.
Take Q61R: the abundance fitness is -0.101 ± 0.065.
Same read-out and setting: the value for Q61H was -0.266 ± 0.12; that for Q61T was 0.263 ± 0.086.
Same read-out and setting: the value for Q61Y was -0.287 ± 0.14; that for Q61F was -0.263 ± 0.1.

Variants of B2 are the subject of a further data set. The description is as above. Particulars: Homo sapiens.
K37N: the abundance fitness is -0.799 ± 0.074.
The same measure, in the same setting: the value for K37G was -0.669 ± 0.073.
On the same count and under the same terms, the value for E31G was 0.313 ± 0.035; that for E31N was 0.171 ± 0.04; that for E31D was 0.129 ± 0.042.
On the same count and under the same terms, the result for E31Y reads -0.124 ± 0.042; that for A56P, -0.772 ± 0.053; that for A56E, 0.085 ± 0.05.
In the case of T24P, the abundance fitness was -0.88 ± 0.069.
The same measure, in the same setting: the result for T24M reads -0.379 ± 0.056.
The same measure, in the same setting: the result for T24V reads -0.179 ± 0.041; that for T24G, -0.713 ± 0.056.
As to T24N, the abundance fitness was -0.314 ± 0.051.
Regarding P6T, the abundance fitness was -0.653 ± 0.072.
Same read-out and setting: the result for P6S reads -0.533 ± 0.049; that for P6Y, 0.128 ± 0.049.
On the same count and under the same terms, the value for H21M was -0.085 ± 0.046.
Same read-out and setting: the result for H21T reads -0.685 ± 0.061; that for H21C, -0.536 ± 0.058.
On to H21D, for which the abundance fitness was -0.889 ± 0.097.
Still for that read-out and setting: the value for H21I was -0.459 ± 0.056.
Turning to L64P, the abundance fitness was -0.595 ± 0.057.
Still for that read-out and setting: the value for L64I was -0.393 ± 0.054.
Same read-out and setting: the result for L64W reads 0.148 ± 0.043.
The same measure, in the same setting: the result for L13Q reads -0.447 ± 0.081; that for L13W, -0.99 ± 0.095; that for L13H, -0.801 ± 0.096.
P52Q: the abundance fitness was -0.424 ± 0.057.
As for P52W, the abundance fitness was -0.782 ± 0.071.
On to P52N, for which the abundance fitness was -0.569 ± 0.062.
For H54P, the abundance fitness was -0.733 ± 0.066.
The same measure, in the same setting: the result for H54L reads -0.849 ± 0.055; that for H54K, -0.496 ± 0.078.
In the case of H54W, the abundance fitness was -0.96 ± 0.09.
In the case of M22H, the abundance fitness was -0.313 ± 0.049.
Still for that read-out and setting: the result for M22D reads -0.749 ± 0.077.
Same read-out and setting: the value for M22F was 0.081 ± 0.043; that for M22C was -0.135 ± 0.043.
Consider M22P, for which the abundance fitness was -0.999 ± 0.087.
In the case of T35L, the abundance fitness is -0.515 ± 0.047.
For T35F, the abundance fitness is -0.911 ± 0.099.
On the same count and under the same terms, the result for T35S reads 0.104 ± 0.035; that for T35C, -0.206 ± 0.053.
Same read-out and setting: the result for T35N reads -0.159 ± 0.049; that for T35Y, -0.587 ± 0.064; that for L44S, -0.875 ± 0.062.
On the same count and under the same terms, the value for P4W was -0.008 ± 0.065.
In the case of P4H, the abundance fitness was -0.01 ± 0.054.
Same read-out and setting: the result for P4R reads -0.198 ± 0.057; that for P4M, 0.078 ± 0.059.
Same read-out and setting: the value for P4Q was 0.159 ± 0.056; that for P4C was -0.088 ± 0.072; that for F25G was -0.882 ± 0.076.
Take F25I: the abundance fitness is -0.687 ± 0.081.
The same measure, in the same setting: the result for F25M reads -0.676 ± 0.073.
Still for that read-out and setting: the result for Y30C reads -0.704 ± 0.076; that for Y30F, 0.058 ± 0.044; that for D32L, -0.767 ± 0.046.
Still for that read-out and setting: the result for D32M reads -0.682 ± 0.06.
On to D32G, for which the abundance fitness is -0.585 ± 0.055.
V9A: the abundance fitness was -0.844 ± 0.073.
On to V9I, for which the abundance fitness is -0.235 ± 0.046.
On to V9K, for which the abundance fitness is -0.701 ± 0.077.
Still for that read-out and setting: the result for V9L reads 0.032 ± 0.035; that for V9E, -0.876 ± 0.13; that for V9M, -0.52 ± 0.07.
Turning to V9G, the abundance fitness was -0.868 ± 0.081.
As for V9C, the abundance fitness was -0.892 ± 0.13.
Take A61R: the abundance fitness is -0.904 ± 0.07.
The same measure, in the same setting: the value for A61C was -0.483 ± 0.073; that for A61L was -0.997 ± 0.071; that for A61Y was -0.609 ± 0.082.
On the same count and under the same terms, the value for L12A was -0.846 ± 0.065; that for L12D was -0.784 ± 0.089.
The same measure, in the same setting: the result for E42L reads -0.6 ± 0.045; that for E42G, 0.013 ± 0.049.
On to E42A, for which the abundance fitness stood at 0.104 ± 0.04.
The same measure, in the same setting: the result for E42M reads -0.476 ± 0.066.
Same read-out and setting: the result for E42V reads -0.302 ± 0.046; that for N71V, 0.035 ± 0.053.
Still for that read-out and setting: the result for N71Y reads -0.132 ± 0.062; that for N71G, 0.041 ± 0.053.
Take N71E: the abundance fitness came to 0.163 ± 0.074.
In the case of E10L, the abundance fitness was -0.532 ± 0.045.
In the case of E10Q, the abundance fitness is -0.445 ± 0.066.
For the variant E10G, the abundance fitness was -0.434 ± 0.063.
Same read-out and setting: the value for E10S was -0.423 ± 0.046; that for E10I was -0.446 ± 0.056; that for E10K was -0.407 ± 0.066.
Same read-out and setting: the result for E10M reads -0.398 ± 0.06; that for N17L, -0.891 ± 0.059.
Still for that read-out and setting: the value for N17H was -0.2 ± 0.049; that for N17S was -0.279 ± 0.04; that for N17F was -0.726 ± 0.085.
As for N17Y, the abundance fitness is -0.904 ± 0.086.
On the same count and under the same terms, the result for D69Q reads -0.262 ± 0.052.
On to D69C, for which the abundance fitness was -0.479 ± 0.094.
Still for that read-out and setting: the result for D69Y reads -0.644 ± 0.066; that for D69N, -0.289 ± 0.058; that for I16W, -0.611 ± 0.088.
Still for that read-out and setting: the result for I16L reads 0.128 ± 0.038.
Same read-out and setting: the result for I16E reads -0.595 ± 0.1; that for I16H, -0.278 ± 0.069.
I16V: the abundance fitness was -0.199 ± 0.052.
In the case of I16F, the abundance fitness was -0.266 ± 0.064.
For I16G, the abundance fitness was -0.674 ± 0.085.
The same measure, in the same setting: the result for I16Y reads -0.009 ± 0.058; that for E67V, -0.232 ± 0.044.
E67D: the abundance fitness was found to be 0.02 ± 0.053.
On the same count and under the same terms, the value for E67P was -0.457 ± 0.049; that for E67S was 0.039 ± 0.037.
